Reference: US20250027068
Substitutions are numbered along the chain they refer to.

B1: PRT-493 (protein)
chain: MVTSVWTKGVTPPTNFTYGEDVLHAPYVANQGWYDITKTFNGKDNLLCGAATAGNMLHWWFDQNKEQIENYLKKHPEKQKIIFNNQELFDLKAAIDTKDSQLDSKLFEYFKEKAFPYLSTKHLGVFPDHVIDMFINGYRLSLTNHGPTPVKRGSKDKRGGIFDAVFTRGVQSKLLTNRHDLKNKTLKEISDLIKQELTEGKALGISHTYANVRINHVINLWGADFDAEGNLEAIYVTDSDTNASIGMKKYFVGVNSNGKVAISAKEIEEDNIGAQVLGLFTLSTGQDIWNQTNLEHHHHHH
B2: PRT-452 (protein)
chain: MVTSVWTKGVTPPANFTQGEDVFHAPYKANQGWYDITKAFDGGDDLLCGAATAGNMLHWWFDQNKDQIEAYLKEHPEKQKINFNGEQMFDVKEAIDTKDDQTNSELFNYFKEKAFPYLSTKHLGVFPDHVLDMFINGYRLSLTNHGPTPVKEGSKDPRGGIFDAVFTRGDQSKLLTSRHDLKNKTLKEISDLIKQELTEGKALALSHTYANVRINHVINLWGADFDSNGNLEAIYVTDSDSNASIGMKKYFVGVNSAGKVAISAKEIEDDNIGAQVLGLFTLSTGQDIWNQTNLEHHHHHH
B3: PRT-464 (protein)
chain: B2 chain with K28V, A70R, D100S, A204G, N228E, E232K, E268K, D269E
B4: PRT-514 (protein)
chain: MITSVWTKGVTPPTDFIKGEDVFHAPYKAGQGWYDITKAFDGGDDLLCGAATAGNMLHWWFDQNKEEIEAYLKKHPEKQKIMFGDQELLDVRKVINTKDSQTNSALFNYFKDKAFPNLSARRLGVMPDLVLDMFINGYYLNVYKTQTTDVNRQEQTKDRRGGIFDAVFGRGDQTKLLTERHDFKEKTLNEISQLIKQELTEGKALGLSHTYANVRINHVINLWGADFDAEGNLEAIYVTDSDSNASIGMKKYFVGVNSAGKVAISAKEIKEDNIGAQVLGLFTLSTGQKIWNKTNLEHHHHHH
B5: PRT-693 (protein)
chain: MQITSVWTKGVIPPTPEQFRYNNEDVIHAPYLPNQGWYDITKTFNGGDNLLCGAATAGNMLHWWFDQNKTEIEAYLSKYPEKQKIIFNNQELFDLRAAINTKDSQTNSQLFNYFRDKAFPNLSARQLGVMPDLVLDMFINGYYLNVFKTQSTDVNRPYQDRDKRGGIFDHVFGRGDQTTLLTARHDLKNGTLNDISTLIKQELQSGKALALSHTYANVSISHVINLWGADFNAEGNLEAIYVTDSDANSSIGMKKYYVGVNAHGKVAISAKKIEGENIGAQVLGLFTLSSGKEIWQKLSLEHHHHHH
B6: PRT-685 (protein)
chain: MQITSVWTKGVTPLTPEQFRNNNEDVIHAPYLPNQGWYDITKAFNGKDNLLCGAATAGNMLHWWFDQNKEEIEAYLKKYPEKQKIIFNNQELFDLRKAINTKDSQTNSALFNYFRDKAFPNLSARQLGVMPDLVLDMFINGYYLNVFKTQSTDVNRPYQDKDKRGGIFDHVFNRGDQTTLLTARHDLKNKTLNDISTIIKQELSSGKALALSHTYANVSISHVINLWGADFNAEGNLEAIYVTDSDANASIGMKKYYVGRNAHGHVAISAKKIEGENIGAQVLGLFTLSSGKEIWQKLSLEHHHHHH
B7: PRT-483 (protein)
chain: MVTSVWTKGVTPPTDFIKGEDVFHAPYKAGQGWYDITKTFNGKDNLLCGAATAGNMLHWWFDQNKDQIEAYLKEHPEKQKIIFNNQELFDLKAAIDTKDDQTNSKLFEYFKEKAFPYLSTKHLGVFPDHVLDMFINGYRLSLTNHGPTPVKEGSKDKRGGIFDAVFTRGVQSKLLTSRHDLKNKTLKEISDLIKQELTEGKALALSHTYANVRINHVINLWGADFDSNGNLEAIYVTDSDTNASIGMKKYFVGVNSAGKVAISAKEIEDDNIGAQVLGLFTLSTGQDIWNQTNLEHHHHHH
B8: PRT-487 (protein)
chain: B7 chain with A70R, D100S, N103D, A204G, N228E, E232K, E268K, D269E
B9: PRT-471 (protein)
chain: MVTSVWTKGVTPPTDFIYGEDVLHAPYKAGQGWYDITKAFDGGDDLLCGAATAGNMLHWWFDQNKEQIENYLKKHPEKQKINFNGEQMFDVKEAIDTKDSQTNSELFNYFKEKAFPYLSTKHLGVFPDHVIDMFINGYRLSLTNHGPTPVKRGSKDPRGGIFDAVFTRGDQSKLLTNRHDFKEKTLKEISDLIKQELTEGKALGISHTYANVRINHVINLWGADFDAEGNLEAIYVTDSDSNASIGMKKYFVGVNSNGKVAISAKEIEEDNIGAQVLGLFTLSTGQDIWNQTNLEHHHHHH
B10: PRT-518 (protein)
chain: MVTSVWTKGVTPPTDFIKGEDVFHAPYKAGQGWYDITKTFNGKDNLLCGAATAGNMLHWWFDQNKEYIEAYLKKHPEKQKIIFNNQELFDLKAAINTKGSQKNSELFNYFRDKAFPNLSARRLGVFPDLVLDMFINGYYLNVTKTQTTDVNRTYQEKDKRGGIFDAVFTRGVQSKLLTSRHDFKEKGLKEISDLIKQELTEGKALGLSHTYANVRINHVINLWGADFDSDGNLKAIYVTDSDTNASIGMKKYFVGVNSAGKVAISAKEIKEDNIGAQVLGLFTLSTGQDIWNQTNLEHHHHHH

Target: pooled human IgG (human IgG1, 2, 3 and 4)

Protein	Enzyme Activity Endpoint Assay: Fab′2	Enzyme Activity Endpoint Assay: Fc	Enzyme Activity Endpoint Assay: IgG	Enzyme Activity Endpoint Assay: scIgG
B1	1170 ng/µL	412 ng/µL	0 ng/µL	0 ng/µL
B2	0 ng/µL	0 ng/µL	1870 ng/µL	0 ng/µL
B3	0 ng/µL	58 ng/µL	0 ng/µL	0 ng/µL
B4	64 ng/µL	37 ng/µL	0 ng/µL	0 ng/µL
B5	1280 ng/µL	436 ng/µL	0 ng/µL	0 ng/µL
B6	1200 ng/µL	448 ng/µL	0 ng/µL	0 ng/µL
B7	1260 ng/µL	459 ng/µL	0 ng/µL	0 ng/µL
B8	0 ng/µL	22 ng/µL	0 ng/µL	0 ng/µL
B9	1110 ng/µL	357 ng/µL	0 ng/µL	0 ng/µL
B10	1220 ng/µL	423 ng/µL	0 ng/µL	0 ng/µL
